Series [1] deals with the molecule itself. Description: crystal structure.
Series [2] addresses HDAC1 (full-length, untagged) (UniProt Q13547 1-482). Nature of the series: crystal structure.

Data on one molecule can be found in publication PMC3710971 (Molecular Cell, 2013).

HDAC1 (full-length, untagged), sequence (Q13547 whole entry): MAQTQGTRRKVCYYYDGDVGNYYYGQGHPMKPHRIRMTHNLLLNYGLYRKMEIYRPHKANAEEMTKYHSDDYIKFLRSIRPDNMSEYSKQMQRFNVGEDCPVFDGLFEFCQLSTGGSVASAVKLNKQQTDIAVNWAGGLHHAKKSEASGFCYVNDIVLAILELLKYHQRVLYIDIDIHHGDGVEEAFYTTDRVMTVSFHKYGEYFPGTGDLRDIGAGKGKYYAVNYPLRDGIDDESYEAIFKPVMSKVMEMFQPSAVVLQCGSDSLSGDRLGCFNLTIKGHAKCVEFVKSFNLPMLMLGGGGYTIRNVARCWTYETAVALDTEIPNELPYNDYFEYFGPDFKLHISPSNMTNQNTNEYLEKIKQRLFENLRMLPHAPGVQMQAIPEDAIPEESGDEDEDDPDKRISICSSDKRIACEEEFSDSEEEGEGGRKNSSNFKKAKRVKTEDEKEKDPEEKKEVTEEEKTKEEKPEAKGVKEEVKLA

B1: ELM2-SANT domain of MTA1 (residues 162-335) (domain or fragment, UniProt Q13330 162-335, looked up)
chain: ADKGEIRVGNRYQADITDLLKEGEEDGRDQSRLETQVWEAHNPLTDKQIDQFLVVARSVGTFARALDCSSSVRQPSLHMSAAAASRDITLFHAMDTLHKNIYDISKAISALVPQGGPVLCRDEMEEWSASEANLFEEALEKYGKDFTDIQQDFLPWKSLTSIIEYYYMWKTTDR
As to B1, the binding result in series [1] and in series [2] was “binds” throughout.
